In publication PMC9064986 (2022):

B1: BMPRII extracellular domain (ECD), wild type [human] / BMP10 growth factor (GF)-domain from Pro:BMP10 made in HEK EBNA cells [human] (parent complex)
chain 1: SQNQERLCAFKDPYQQDLGIGESRISHENGTILCSKGSTCYGLWEKSKGDINLVKQGCWSHIGDPQECHYEECVVTTTPPSIQNGTYRFCCCSTDLCNVNFTENFPPPDTTPLSPPHSFNRDET
chain 2: NAKGNYCKRTPLYIDFKEIGWDSWIIAPPGYEAYECRGVCNYPLAEHLTPTKHAIIQALVHLKNSQKASKACCVPTKLEPISILYLDKGVVTYKFKYEGMAVSECGCR

Variants of: B1
Assay: SPR (Biacore); BMP10 immobilised on a CM5 Biacore chip; parent: 0.161

Row | Variant | koff
1 | chain 1 G63A | 0.331 s⁻¹
2 | chain 1 G63W | 0.433 s⁻¹
3 | chain 1 G63E | 0.609 s⁻¹
4 | chain 1 Q66H | 0.147 s⁻¹
5 | chain 1 E72K | 0.158 s⁻¹
6 | chain 1 S81P | 0.0423 s⁻¹

Variants of: B1
Assay: SPR (Biacore); BMP10 immobilised on a CM5 Biacore chip; parent: 1.35e+05

Row | Variant | kon
7 | chain 1 G63A | 104000 M⁻¹ s⁻¹
8 | chain 1 G63W | 1830 M⁻¹ s⁻¹
9 | chain 1 G63E | 3980 M⁻¹ s⁻¹
10 | chain 1 Q66H | 120000 M⁻¹ s⁻¹
11 | chain 1 E72K | 148000 M⁻¹ s⁻¹
12 | chain 1 S81P | 129000 M⁻¹ s⁻¹

Variants of: B1
Assay: SPR (Biacore); BMP10 immobilised on a CM5 Biacore chip; parent: 1.19e+03 nM

Row | Variant | Kd
13 | chain 1 G63A | 3190 nM
14 | chain 1 G63W | 237000 nM
15 | chain 1 G63E | 153000 nM
16 | chain 1 Q66H | 1220 nM
17 | chain 1 E72K | 1070 nM
18 | chain 1 S81P | 328 nM
